Assay [1] deals with T1, 人CD16a抗原 (ACRO biosystems, 货号CDA-H5220) (human, UniProt P08637 17-208).
T1 construct: Bought protein coated on the ELISA plate at 2 μg/mL; also called 人CD16a蛋白; CD16抗原
Put plainly: ELISA, human CD16a coated at 2 μg/mL, HRP rabbit anti-human IgG, OD450.

Assay [2] deals with T2, 人B7H6 (ACRO biosystems, 货号B76-H52H8) (human, UniProt Q68D85 25-262).
T2 construct: Bought protein coated on the ELISA plate at 2 μg/mL; also called 人B7H6蛋白; B7H6抗原
T2 sequence (looked up): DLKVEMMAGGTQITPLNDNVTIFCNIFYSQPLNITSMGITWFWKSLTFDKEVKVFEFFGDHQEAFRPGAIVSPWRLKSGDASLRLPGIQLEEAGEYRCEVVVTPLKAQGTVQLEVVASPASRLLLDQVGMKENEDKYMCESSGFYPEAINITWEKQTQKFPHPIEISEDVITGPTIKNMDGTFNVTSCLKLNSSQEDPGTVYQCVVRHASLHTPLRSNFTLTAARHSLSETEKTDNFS
The assay is described as follows: ELISA, human B7H6 coated at 2 μg/mL, HRP rabbit anti-human IgG, OD450. Background: In an ELISA, binding on a coated surface is turned into a signal by an enzyme label.

T1 sequence (P08637 17-208 limits assumed): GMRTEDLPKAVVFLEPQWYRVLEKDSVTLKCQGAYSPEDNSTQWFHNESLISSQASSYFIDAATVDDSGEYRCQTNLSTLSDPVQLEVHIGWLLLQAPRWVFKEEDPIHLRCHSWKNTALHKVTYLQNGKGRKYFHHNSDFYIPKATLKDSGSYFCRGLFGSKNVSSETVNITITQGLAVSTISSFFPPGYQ

B1: CD16×B7H6重组双特异性抗体 (bispecific antibody, human IgG1, L234A L235A)
chain 1: not shown
chain 2: DIVLTQTPLSLSVTPGQPASISCKASQSVDYDGDSYMNWYLQKPGQPPQLLIYAASTLHSGIPDRFSGSGSGTDFTLKISRVEAEDVGVYYCQQSKEDPRTFGQGTKLEIKGGGGSGGGGSGGGGSEVQLVQSGAEVKKPGASVKVSCKASGYTFTDYNMDWVRQAPGQGLEWIGDINPNNGGTLYNQKFRGRVTLTVDTSISTAYMELSRLRSDDTAVYYCARSEVFYGNYADYWGQGTTVTVSSEPKSCDKTHTCPPCPAPEAAGGPSVFLFPPKPKDTLMISRTPEVTCVVVDVSHEDPEVKFNWYVDGVEVHNAKTKPREEQYNSTYRVVSVLTVLHQDWLNGKEYKCKVSNKALPAPIEKTISKAKGQPREPQVCTLPPSRDELTKNQVSLSCAVKGFYPSDIAVEWESNGQPENNYKTTPPVLDSDGSFFLVSKLTVDKSRWQQGNVFSCSVMHEALHNHYTQKSLSLSPGK
notes: Heterodimer of two scFv-Fc chains (knob-into-hole); Expressed in ExpiCHO-S, purified on protein A; also called NKmab; CD16×B7H6双特异性抗体
As for B1, the binding result in assay [1] and in assay [2] was “binds” each time.

Values taken from patent CN114395044A (HEFEN TIANKPORT IMMUNOLOGICAL DRUG CO LTD, dated 2022).
